Assay results as given in patent US20210179706A1.
pEC50, pKd: −log10 of the molar value. Values joined by “and” are separate entries in the source; they are usually repeats but may differ in a detail not shown here. Equal values may be shown once. Read-outs that look alike come from different tables or passages of the source.

Tests used:
[1] = biological target: human IL-1β-His-Bio (human) (UniProt P01584); assay: ELISA, IL-1β-His-Bio captured on streptavidin; 4-parameter fit
[2] = biological target: human IL-1β-His-Bio (human) (UniProt P01584); assay: as above; remark: listed apart in the source
[3] = biological target: human IL-1β-His-Bio (human) (UniProt P01584); assay: ELISA, IL-1β-His-Bio captured on streptavidin; antibody 1 µg/mL
[4] = biological target: human IL-1β-His-Bio (human) (UniProt P01584); assay: ELISA, IL-1β-His-Bio captured on streptavidin; antibody 0.001 µg/mL
[5] = biological target: human IL-1β-His-Bio (human) (UniProt P01584); assay: ELISA, IL-1β-His-Bio captured on streptavidin; antibody 0.004 µg/mL
[6] = biological target: human IL-1β-His-Bio (human) (UniProt P01584); assay: ELISA, IL-1β-His-Bio captured on streptavidin; antibody 0.012 µg/mL
[7] = biological target: human IL-1β-His-Bio (human) (UniProt P01584); assay: ELISA, IL-1β-His-Bio captured on streptavidin; antibody 0.037 µg/mL
[8] = biological target: human IL-1β-His-Bio (human) (UniProt P01584); assay: ELISA, IL-1β-His-Bio captured on streptavidin; antibody 0.111 µg/mL
[9] = biological target: human IL-1β-His-Bio (human) (UniProt P01584); assay: ELISA, IL-1β-His-Bio captured on streptavidin; antibody 0.333 µg/mL
[10] = biological target: human IL-1β-His-Bio (human) (UniProt P01584); assay: as above; remark: listed apart in the source
human IL-1β-his (human) = human IL-1β-his (human) (UniProt P01584); assay: SPR (Biacore), antibody amine-coupled on CM5, IL-1β 1.56-25 nM as analyte
[11] = biological target: human IL-1β-His-Bio (human) (UniProt P01584); assay: ELISA, IL-1β-His-Bio captured on streptavidin; antibody 0.333 µg/mL diluted 1:3
[12] = biological target: human IL-1β-His-Bio (human) (UniProt P01584); assay: ELISA, IL-1β-His-Bio captured on streptavidin; antibody 0.333 µg/mL diluted 1:9
[13] = biological target: human IL-1β-His-Bio (human) (UniProt P01584); assay: ELISA, IL-1β-His-Bio captured on streptavidin; antibody 0.333 µg/mL diluted 1:27
[14] = biological target: human IL-1β-His-Bio (human) (UniProt P01584); assay: ELISA, IL-1β-His-Bio captured on streptavidin; antibody 0.333 µg/mL diluted 1:81
[15] = biological target: human IL-1β-His-Bio (human) (UniProt P01584); assay: ELISA, IL-1β-His-Bio captured on streptavidin; antibody 0.333 µg/mL diluted 1:243
[16] = biological target: human IL-1β-His-Bio (human) (UniProt P01584); assay: ELISA, IL-1β-His-Bio captured on streptavidin; antibody 0.333 µg/mL diluted 1:729
human IL-1β-hFc (human) [17] = biological target: human IL-1β-hFc (human) (UniProt P01584); assay: competition ELISA on coated IL-1β-hFc, competitor IL-1R1(1-332)-his; 4-parameter fit
human IL-1β-hFc (human) [18] = biological target: human IL-1β-hFc (human) (UniProt P01584); assay: as above; remark: listed apart in the source
human IL-1β-hFc (human) [19] = biological target: human IL-1β-hFc (human) (UniProt P01584); assay: competition ELISA on coated IL-1β-hFc, competitor IL-1R1(1-332)-his (anti-His-HRP read-out); antibody 0.001 µg/mL
human IL-1β-hFc (human) [20] = biological target: human IL-1β-hFc (human) (UniProt P01584); assay: competition ELISA on coated IL-1β-hFc, competitor IL-1R1(1-332)-his (anti-His-HRP read-out); antibody 0.004 µg/mL
human IL-1β-hFc (human) [21] = biological target: human IL-1β-hFc (human) (UniProt P01584); assay: competition ELISA on coated IL-1β-hFc, competitor IL-1R1(1-332)-his (anti-His-HRP read-out); antibody 0.012 µg/mL
human IL-1β-hFc (human) [22] = biological target: human IL-1β-hFc (human) (UniProt P01584); assay: competition ELISA on coated IL-1β-hFc, competitor IL-1R1(1-332)-his (anti-His-HRP read-out); antibody 0.037 µg/mL
human IL-1β-hFc (human) [23] = biological target: human IL-1β-hFc (human) (UniProt P01584); assay: competition ELISA on coated IL-1β-hFc, competitor IL-1R1(1-332)-his (anti-His-HRP read-out); antibody 0.111 µg/mL
human IL-1β-hFc (human) [24] = biological target: human IL-1β-hFc (human) (UniProt P01584); assay: competition ELISA on coated IL-1β-hFc, competitor IL-1R1(1-332)-his (anti-His-HRP read-out); antibody 0.333 µg/mL
human IL-1β-hFc (human) [25] = biological target: human IL-1β-hFc (human) (UniProt P01584); assay: competition ELISA on coated IL-1β-hFc, competitor IL-1R1(1-332)-his (anti-His-HRP read-out); antibody 1.000 µg/mL
human IL-1β-hFc (human) [26] = biological target: human IL-1β-hFc (human) (UniProt P01584); assay: competition ELISA on coated IL-1β-hFc, competitor IL-1R1(1-332)-his (anti-His-HRP read-out); antibody 0.001 µg/mL; remark: listed apart in the source
human IL-1β-hFc (human) [27] = biological target: human IL-1β-hFc (human) (UniProt P01584); assay: competition ELISA on coated IL-1β-hFc, competitor IL-1R1(1-332)-his (anti-His-HRP read-out); antibody 0.004 µg/mL; remark: listed apart in the source
human IL-1β-hFc (human) [28] = biological target: human IL-1β-hFc (human) (UniProt P01584); assay: competition ELISA on coated IL-1β-hFc, competitor IL-1R1(1-332)-his (anti-His-HRP read-out); antibody 0.012 µg/mL; remark: listed apart in the source
human IL-1β-hFc (human) [29] = biological target: human IL-1β-hFc (human) (UniProt P01584); assay: competition ELISA on coated IL-1β-hFc, competitor IL-1R1(1-332)-his (anti-His-HRP read-out); antibody 0.037 µg/mL; remark: listed apart in the source
human IL-1β-hFc (human) [30] = biological target: human IL-1β-hFc (human) (UniProt P01584); assay: competition ELISA on coated IL-1β-hFc, competitor IL-1R1(1-332)-his (anti-His-HRP read-out); antibody 0.111 µg/mL; remark: listed apart in the source
human IL-1β-hFc (human) [31] = biological target: human IL-1β-hFc (human) (UniProt P01584); assay: competition ELISA on coated IL-1β-hFc, competitor IL-1R1(1-332)-his (anti-His-HRP read-out); antibody 0.333 µg/mL; remark: listed apart in the source
human IL-1β-hFc (human) [32] = biological target: human IL-1β-hFc (human) (UniProt P01584); assay: competition ELISA on coated IL-1β-hFc, competitor IL-1R1(1-332)-his (anti-His-HRP read-out); antibody 1.000 µg/mL; remark: listed apart in the source

## canakinumab (trade name Ilaris) (antibody)
[1]
  pEC50: 10.41
[2]
  pEC50: 10.24
[3]
  OD (450 nm): 2.87 OD450
[4]
  OD (450 nm): 0.581 OD450 and 0.559 OD450
[5]
  OD (450 nm): 1.26 OD450 and 1.2 OD450
[6]
  OD (450 nm): 2.06 OD450 and 2.12 OD450
[7]
  OD (450 nm): 2.64 OD450 and 2.68 OD450
[8]
  OD (450 nm): 2.9 OD450 and 2.89 OD450
[9]
  OD (450 nm): 2.9 OD450 and 2.88 OD450
[10]
  OD (450 nm): 2.81 OD450 and 2.94 OD450
Human IL-1β-his (human)
  pKd: 10.01
[11]
  OD (450 nm): 2.68 OD450 and 2.88 OD450
[12]
  OD (450 nm): 2.46 OD450 and 2.61 OD450
[13]
  OD (450 nm): 1.7 OD450 and 1.96 OD450
[14]
  OD (450 nm): 0.852 OD450 and 1.11 OD450
[15]
  OD (450 nm): 0.408 OD450 and 0.573 OD450
[16]
  OD (450 nm): 0.315 OD450
Human IL-1β-hFc (human) [17]
  pEC50: 9.59
Human IL-1β-hFc (human) [18]
  pEC50: 9.02
Human IL-1β-hFc (human) [19]
  OD (450 nm) of blocking assay: 0.577 OD450 and 0.72 OD450
Human IL-1β-hFc (human) [20]
  OD (450 nm) of blocking assay: 0.727 OD450 and 0.684 OD450
Human IL-1β-hFc (human) [21]
  OD (450 nm) of blocking assay: 0.572 OD450 and 0.579 OD450
Human IL-1β-hFc (human) [22]
  OD (450 nm) of blocking assay: 0.366 OD450 and 0.379 OD450
Human IL-1β-hFc (human) [23]
  OD (450 nm) of blocking assay: 0.091 OD450 and 0.092 OD450
Human IL-1β-hFc (human) [24]
  OD (450 nm) of blocking assay: 0.059 OD450 and 0.057 OD450
Human IL-1β-hFc (human) [25]
  OD (450 nm) of blocking assay: 0.053 OD450 and 0.052 OD450
Human IL-1β-hFc (human) [26]
  OD (450 nm) of blocking assay: 0.738 OD450 and 0.559 OD450
Human IL-1β-hFc (human) [27]
  OD (450 nm) of blocking assay: 0.765 OD450 and 0.735 OD450
Human IL-1β-hFc (human) [28]
  OD (450 nm) of blocking assay: 0.797 OD450 and 0.706 OD450
Human IL-1β-hFc (human) [29]
  OD (450 nm) of blocking assay: 0.736 OD450 and 0.705 OD450
Human IL-1β-hFc (human) [30]
  OD (450 nm) of blocking assay: 0.519 OD450 and 0.526 OD450
Human IL-1β-hFc (human) [31]
  OD (450 nm) of blocking assay: 0.104 OD450 and 0.126 OD450
Human IL-1β-hFc (human) [32]
  OD (450 nm) of blocking assay: 0.093 OD450 and 0.088 OD450
